Key:
[1] = target: T1, human FcRH5c (full length human FcRH5) (human, UniProt Q96RD9 16-977); experiment: FACS, APC-labelled antibodies on SVT2 cells with full-length human FcRH5
T1 construct: Used on transfected SVT2, 293, EJM and OPM2 cells and endogenously on MOLP-2 cells and CD19+ B cells; also called IRTA2c; huFcRH5
T1 sequence: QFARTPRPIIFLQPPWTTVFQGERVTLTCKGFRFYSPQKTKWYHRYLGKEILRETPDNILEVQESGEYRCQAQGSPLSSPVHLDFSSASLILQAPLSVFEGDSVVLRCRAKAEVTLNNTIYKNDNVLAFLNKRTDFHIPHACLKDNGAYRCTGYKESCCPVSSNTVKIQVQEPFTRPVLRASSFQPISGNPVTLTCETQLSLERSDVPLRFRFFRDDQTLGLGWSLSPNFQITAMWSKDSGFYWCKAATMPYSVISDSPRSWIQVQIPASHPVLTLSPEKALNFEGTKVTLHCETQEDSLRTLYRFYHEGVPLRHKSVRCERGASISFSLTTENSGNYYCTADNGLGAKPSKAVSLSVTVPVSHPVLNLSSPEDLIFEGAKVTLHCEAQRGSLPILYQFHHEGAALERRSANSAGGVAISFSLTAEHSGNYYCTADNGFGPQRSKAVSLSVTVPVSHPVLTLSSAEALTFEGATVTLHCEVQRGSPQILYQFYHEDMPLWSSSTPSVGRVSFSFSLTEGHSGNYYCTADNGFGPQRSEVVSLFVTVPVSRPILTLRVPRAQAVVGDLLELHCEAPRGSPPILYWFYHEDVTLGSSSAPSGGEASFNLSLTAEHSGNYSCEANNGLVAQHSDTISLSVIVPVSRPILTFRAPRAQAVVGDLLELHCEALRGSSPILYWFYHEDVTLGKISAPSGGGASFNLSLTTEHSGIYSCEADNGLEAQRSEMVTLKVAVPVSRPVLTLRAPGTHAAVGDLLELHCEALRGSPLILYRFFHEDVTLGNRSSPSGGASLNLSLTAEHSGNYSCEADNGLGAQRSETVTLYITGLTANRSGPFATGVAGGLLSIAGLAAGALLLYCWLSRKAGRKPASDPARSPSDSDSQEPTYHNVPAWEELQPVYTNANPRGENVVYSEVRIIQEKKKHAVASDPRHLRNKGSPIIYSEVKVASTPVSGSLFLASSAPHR

[2] = target: T2, human FcRH2 with N-terminal gD-expression tag on SVT2 cells (human, UniProt Q96LA5 20-508); experiment: FACS, SVT2 cells with gD-tagged FcRH2, subclone supernatants, anti-mouse PE
T2 construct: whole, on cells; also called SVT2/FcRH2
T2 sequence (looked up): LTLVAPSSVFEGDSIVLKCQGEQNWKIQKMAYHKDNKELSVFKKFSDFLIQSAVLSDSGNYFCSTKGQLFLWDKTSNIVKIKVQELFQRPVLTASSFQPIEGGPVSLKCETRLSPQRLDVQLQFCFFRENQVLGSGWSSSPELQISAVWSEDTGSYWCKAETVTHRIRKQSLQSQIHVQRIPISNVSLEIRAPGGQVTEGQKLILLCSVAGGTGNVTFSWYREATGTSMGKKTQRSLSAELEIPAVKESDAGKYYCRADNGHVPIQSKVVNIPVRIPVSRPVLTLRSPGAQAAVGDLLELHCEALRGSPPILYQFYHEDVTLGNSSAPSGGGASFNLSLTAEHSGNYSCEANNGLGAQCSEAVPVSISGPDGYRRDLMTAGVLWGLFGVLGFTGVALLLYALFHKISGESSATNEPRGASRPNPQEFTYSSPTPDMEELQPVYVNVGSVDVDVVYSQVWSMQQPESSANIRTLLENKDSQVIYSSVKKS
Text: Fc receptor homolog (FcRH) family molecules have a high degree of homology to one another (Miller et al., 2002). The homology is especially high between the membrane proximal domains, which the E11 antibodies target (Miller et al., 2002). To investigate the cross reactivity to family members, FcRH1, FcRH2, FcRH3 and FcRH4 (all including an N-terminal gD-expression tag) were expressed in SVT2 cells and cells were stained with subclone supernatants and goat anti-mouse-PE secondary antibody. Expression of the transfected FcRH was confirmed by a signal from anti-gD antibody in all cell lines. […] Overall, the signals from FcRH3-expressing SVT2 cells were low, including the gD control antibody, indicative of low expression level. Low level of binding to FcRH3-expressing SVT2 cells was detected for 1F4 and 4H8 supernatants (FIG. 6C).

B1: 3B12.1.1 (antibody, IgG2b, V domains shown)
VH: EVQLQQSGPELVKPGASVKISCKTSGYTFTEYTIHWVKQSHGKSLERIGGINPNNDAVSYNQRFRGKATLTVDKSSSTAYMELRSLTSEDSAVYYCAKLGRGYYFDYWGQGTTLTVSSASTKGPSVFPLAP
VL: DIQMTQSPASLSASVGETVTITCRASENIYSNLAWYQLKQGKSPQLLVYGAANLAEGVPSRISGSGSGTQYSLKINSLQSEDFGTYYCQHFWGIPWTFGGGTKLEIKRTVAA
notes: parent 3B12 and subclone 3B12.1 treated as the same antibody; also called 3B12.1.mIgG2b
[1]
  binding result: binds
[2]
  binding result: no binding

— patent publication US20150098900A1 (Genentech, published 2015)
